T1: hRRM1 with the first 74 residues deleted (t-hRRM1) (human, UniProt P23921 75-792)
T1 sequence (looked up): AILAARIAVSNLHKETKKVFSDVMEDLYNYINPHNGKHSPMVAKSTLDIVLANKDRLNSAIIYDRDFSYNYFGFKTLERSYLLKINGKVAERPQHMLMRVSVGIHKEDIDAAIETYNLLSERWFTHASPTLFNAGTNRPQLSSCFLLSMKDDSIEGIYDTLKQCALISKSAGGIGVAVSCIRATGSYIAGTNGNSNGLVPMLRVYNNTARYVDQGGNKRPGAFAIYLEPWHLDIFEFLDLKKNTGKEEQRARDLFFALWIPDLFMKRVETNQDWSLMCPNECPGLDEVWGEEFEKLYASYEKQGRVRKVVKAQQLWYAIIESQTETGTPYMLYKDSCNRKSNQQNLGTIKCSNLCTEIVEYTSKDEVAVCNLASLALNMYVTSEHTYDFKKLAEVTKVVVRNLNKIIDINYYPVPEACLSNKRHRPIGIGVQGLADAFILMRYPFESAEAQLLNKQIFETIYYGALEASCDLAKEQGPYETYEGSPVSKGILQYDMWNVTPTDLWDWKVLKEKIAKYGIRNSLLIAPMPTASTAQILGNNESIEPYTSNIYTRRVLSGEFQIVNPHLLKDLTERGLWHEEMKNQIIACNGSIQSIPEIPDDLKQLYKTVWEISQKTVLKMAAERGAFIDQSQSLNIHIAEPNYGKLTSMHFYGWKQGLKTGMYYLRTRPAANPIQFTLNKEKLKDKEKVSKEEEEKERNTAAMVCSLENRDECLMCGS

T2: S. cerevisiae ribonucleotide reductase RR1 (ScRR1), wild type (S. cerevisiae, UniProt P21524 1-888)
T2 sequence: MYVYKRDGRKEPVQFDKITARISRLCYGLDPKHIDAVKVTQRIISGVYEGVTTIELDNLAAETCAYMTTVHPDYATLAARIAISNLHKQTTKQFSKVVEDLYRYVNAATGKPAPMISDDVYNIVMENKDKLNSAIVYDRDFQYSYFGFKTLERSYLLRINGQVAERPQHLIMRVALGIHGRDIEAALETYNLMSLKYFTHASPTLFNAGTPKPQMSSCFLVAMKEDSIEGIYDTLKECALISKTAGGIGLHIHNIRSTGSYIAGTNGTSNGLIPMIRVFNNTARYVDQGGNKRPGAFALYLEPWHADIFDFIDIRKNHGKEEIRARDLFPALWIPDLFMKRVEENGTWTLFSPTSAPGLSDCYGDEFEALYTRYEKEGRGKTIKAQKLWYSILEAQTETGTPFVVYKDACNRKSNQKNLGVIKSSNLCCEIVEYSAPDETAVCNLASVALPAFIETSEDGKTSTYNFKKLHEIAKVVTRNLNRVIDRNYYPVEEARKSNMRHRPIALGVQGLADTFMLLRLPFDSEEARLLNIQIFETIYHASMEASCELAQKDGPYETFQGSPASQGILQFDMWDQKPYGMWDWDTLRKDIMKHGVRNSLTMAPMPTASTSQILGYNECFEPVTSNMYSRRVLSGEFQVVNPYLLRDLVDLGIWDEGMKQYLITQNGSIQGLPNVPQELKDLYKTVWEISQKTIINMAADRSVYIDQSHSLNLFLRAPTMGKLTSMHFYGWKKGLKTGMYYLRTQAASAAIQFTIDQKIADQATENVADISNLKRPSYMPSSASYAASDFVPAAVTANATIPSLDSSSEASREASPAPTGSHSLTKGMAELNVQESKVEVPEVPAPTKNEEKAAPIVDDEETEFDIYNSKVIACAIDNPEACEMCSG


What was measured:
Assay in all cases: SEC
SEC = target: the molecule itself
[1] = target: T1, hRRM1 with the first 74 residues …
[2] = target: T2, S. cerevisiae ribonucleotide reductase …

binding result [1]	binding result [2]	Binder	stoichiometry N (SEC)
binds	–	human ribonucleotide reductase small subunit hRRM2 (enzyme, UniProt P31350 1-389, looked up) MLSLRVPLAPITDPQQLQLSPLKGLSLVDKENTPPALSGTRVLASKTARRIFQEPTEPKTKAAAPGVEDEPLLRENPRRFVIFPIEYHDIWQMYKKAEASFWTAEEVDLSKDIQHWESLKPEERYFISHVLAFFAASDGIVNENLVERFSQEVQITEARCFYGFQIAMENIHSEMYSLLIDTYIKDPKEREFLFNAIETMPCVKKKADWALRWIGDKEATYGERVVAFAAVEGIFFSGSFASIFWLKKRGLMPGLTFSNELISRDEGLHCDFACLMFKHLVHKPSEERVREIIINAVRIEQEFLTEALPVKLIGMNCTLMKQYIEFVADRLMLELGFSKVFRVENPFDFMENISLEGKTNFFEKRVGEYQRMGVMSSPTENSFTLDADF	2
–	binds	yeast RR2●RR4 hetero-dimer (ScRR2●ScRR4) (complex, S. cerevisiae) chain 1: MPKETPSKAAADALSDLEIKDSKSNLNKELETLREENRVKSDMLKEKLSKDAENHKAYLKSHQVHRHKLKEMEKEEPLLNEDKERTVLFPIKYHEIWQAYKRAEASFWTAEEIDLSKDIHDWNNRMNENERFFISRVLAFFAASDGIVNENLVENFSTEVQIPEAKSFYGFQIMIENIHSETYSLLIDTYIKDPKESEFLFNAIHTIPEIGEKAEWALRWIQDADALFGERLVAFASIEGVFFSGSFASIFWLKKRGMMPGLTFSNELICRDEGLHTDFACLLFAHLKNKPDPAIVEKIVTEAVEIEQRYFLDALPVALLGMNADLMNQYVEFVADRLLVAFGNKKYYKVENPFDFMENISLAGKTNFFEKRVSDYQKAGVMSKSTKQEAGAFTFNEDF chain 2: MEAHNQFLKTFQKERHDMKEAEKDEILLMENSRRFVMFPIKYHEIWAAYKKVEASFWTAEEIELAKDTEDFQKLTDDQKTYIGNLLALSISSDNLVNKYLIENFSAQLQNPEGKSFYGFQIMMENIYSEVYSMMVDAFFKDPKNIPLFKEIANLPEVKHKAAFIERWISNDDSLYAERLVAFAAKEGIFQAGNYASMFWLTDKKIMPGLAMANRNICRDRGAYTDFSCLLFAHLRTKPNPKIIEKIITEAVEIEKEYYSNSLPVEKFGMDLKSIHTYIEFVADGLLQGFGNEKYYNAVNPFEFMEDVATAGKTTFFEKKVSDYQKASDMSKSATPSKEINFDDDF	–

— paper PMC3101628 (Nature structural & molecular biology, 2011)
